# Reference: the DeepSol protein solubility set
# Assay: soluble on expression in E. coli; label from the status in PepcDB or PDB records
row,Sequence,soluble on expression in E. coli
1,MKPKPSQFKNLERMLGLKTEQLDAVKVTIELKDKILIIENPTVIKMIAQGQEIYSVIGEAKEAQKEEPKVEIKDEDVKFVMEQTGKGEQEVKEALQKANGDIAKAILLLTGQET,soluble
2,MKPLTYTLVVNGPQYGTQSARNAYLFAKALIEKGHILKSVFFYQDGVLNGSSTHVPANDEFNLLQGWQSLAQSHQVQLETCVAAALRRGVVSEQEASQHGLASHNLAAHFTQAGLGSLAQALLEQDRVVQF,soluble
3,MKPPFEQALGIIRQLKRHGYEAYFVGGAVRDLLIGRPIGDVDIATSALPEEVMRLFPKTIDVGSKHGTVVVVHEGTAYEVTTFRTDGDYEDHRRPESVTFVRSLEEDLKRRDFTMNAIAMDERGTIIDPFGGQEAIERRLICTVGAADERFREDALRMMRAVRFVSQLGFALAEDTKSAIVQNAPLMAHISVERMTMEMEKLLAGPFVAEALPLLADTGLFAYLPGLAAKEQLLRSAAAFRWPWLTKREERWALLCRALDVKDIRPFLRAWKLPNKVIDEAGAILAALDDVPRPEAWTNEQLFSAGLERALSVEAVRAALCGAPSEPHHEELRRRFAALPIKTKGELAVNGKDVIRWAGKPAGPWVKETLDAIWRAVVSSEVENEKERIYAWLMERNRTHEKNC,not soluble
4,MKPSMEKVLLQIALDLSSNLSSDLHYQRLINSIHQVFPCDASALFILDNDHCLKPVAVKGLSQAVLGRCFPPQVHPRLEAILQSKHPVRFESNSDLPDPFDGLLLVDENINIEVHDCLGCSLYVDDTLVGVLTLDALEVGAFKKIDDITIETFAALAAATLHNKALIKTLQDSNQQQKSINQTLI,not soluble
5,MKPYLMGNNPCGADATLFAFAASLLSPVFETPIRAAAESHPNLIAYMARMRTRYYPDFQGSGVFAPALEHHHHHH,not soluble
6,MKQASAIPQPKTYGPLKNLPHLEKEQLSQSLWRIADELGPIFRFDFPGVSSVFVSGHNLVAEVCDEKRFDKNLGKGLQKVREFGGDGLFTSWTHEPNWQKAHRILLPSFSQKAMKGYHSMMLDIATQLIQKWSRLNPNEEIDVADDMTRLTLDTIGLCGFNYRFNSFYRDSQHPFITSMLRALKEAMNQSKRLGLQDKMMVKTKLQFQKDIEVMNSLVDRMIAERKANPDENIKDLLSLMLYAKDPVTGETLDDENIRYQIITFLIAGHETTSGLLSFAIYCLLTHPEKLKKAQEEADRVLTDDTPEYKQIQQLKYIRMVLNETLRLYPTAPAFSLYAKEDTVLGGEYPISKGQPVTVLIPKLHRDQNAWGPDAEDFRPERFEDPSSIPHHAYKPFGNGQRACIGMQFALQEATMVLGLVLKHFELINHTGYELKIKEALTIKPDDFKITVKPRKTAAINVQRKEQADIKAETKPKETKPKHGTPLLVLFGSNLGTAEGIAGELAAQGRQMGFTAETAPLDDYIGKLPEEGAVVIVTASYNGAPPDNAAGFVEWLKELEEGQLKGVSYAVFGCGNRSWASTYQRIPRLIDDMMKAKGASRLTAIGEGDAADDFESHRESWENRFWKETMDAFDINEIAQKEDRPSLSITFLSEATETPVAKAYGAFEGIVLENRELQTAASTRSTRHIELEIPAGKTYKEGDHIGILPKNSRELVQRVLSRFGLQSNHVIKVSGSAHMAHLPMDRPIKVVDLLSSYVELQEPASRLQLRELASYTVCPPHQKELEQLVSDDGIYKEQVLAKRLTMLDFLEDYPACEMPFERFLALLPSLKPRYYSISSSPKVHANIVSMTVGVVKASAWSGRGEYRGVASNYLAELNTGDAAACFIRTPQSGFQMPNDPETPMIMVGPGTGIAPFRGFIQARSVLKKEGSTLGEALLYFGCRRPDHDDLYREELDQAEQDGLVTIRRCYSRVENEPKGYVQHLLKQDTQKLMTLIEKGAHIYVCGDGSQMAPDVERTLRLAYEAEKAASQEESAVWLQKLQDQRRYVKDVW,soluble
7,MKQEETLTKVKVAEVTHSIFYAPLYVAESKGFFKEEGLDVDVNTTWGGDKTMTSLLSNGSDIALVGSETSIYVEAQGAKDPVINFAQLTQTDGTFLVAREDVEHFDWDQLKGKTFLGQRKGGMPQMVGEYVLNKHKIDPHKDIDLIQNIDFANIANAFASGTGEYVQLFEPQLLSLRKKASAISWLHSEKNQERFLIRLLWRNKAILEHHHHHH,not soluble
8,MKQEFVAAIEIDGTGRIHVTPGESQFPYIYREAMEVSWNESTRSLHSPVPREWSYAQWLQQIFAAASEQGVKLVLGPNTRWVNVPNELRAELTHAAAA,soluble
9,MKQINDVSFLLDKRLVVLIEHQSTINENLPYRLLEYITRIYEKIVDKEKKYQKNLVKIPKPEFIVLYNGADPYPDYTELKLSDAFMDIEGLKLTGIDKIPLELIVPVYNINQGHNPEILKKCESLYGYSFFISKIREYQTQGLTLEELITPVIEYCIKNNILKDYLEAHASEVINMIFGEYDREMDIAVNRREAREEGREEGFKEGKLIIAKNLLSEGSTPEFVQRITGLTLDEIEEIGL,not soluble
10,MKQQDNPLIEQFLDALWLERNLAENTLASYRLDLHALVGWLTHHNSDLLRASPQDLQSFLAERIEGGYKATSSARLLSAMRRLFQYLYREKLREDDPTALLSSPKLPQRLPKDLSEAQVDALLNSPNVDIPLELRDKAMLEVLYATGLRVSELVGLTISDVSLRQGVVRVIGKGNKERLVPLGEEAVYWIENYMEHGRPWLVNGASLDVLFPSNRSQQMTRQTFWHRIKHYAILAGIDSERLSPHVLRHAFATHLLNHGADLRVVQMLLGHSDLSTTQIYTHVATERLRQLHQQHHPRA,not soluble
11,MKQVCVLGNGQLGRMLRQAGEPLGIAVWPVGLDAEPTAVPVQQSVITAEIERWPETALTRELARHPAFVNRDVFPIIADRLTQKQLFDKLGLATAPWQLLTSTDEWSGIFDRLGELAIIKRRVGGYDGRGQWRLRADETGQLPDDCYGECIVERGIHFSGEVSLVGARAHDGSTVFYPLTHNLHQDGILRTSVAFPQANAEQQEQAESMLSAIMQALNYVGVMAMECFITPEGLLINELAPRVHNSGHWTQNGASISQFELHLRAITGLPLPAPVINAPSVMINLIGSELNYDWLKLPLVHLHWYDKAVRPGRKVGHLNLTDSDTSRLSATLEALSPLLPGEYASGIIWAQSKLK,not soluble
12,MKRAVVVFSGGQDSTTCLVQALQQYDEVHCVTFDYGQRHRAEIDVARELALKLGARAHKVLDVTLLNELAVSSLTRDSIPVPDYEPEADGIPNTFVPGRNILFLTLAAIYAYQVKAEAVITGVCETDFSGYPDCRDEFVKALNHAVSLGMAKDIRFETPLMWIDKAETWALADYYGKLDLVRNETLTCYNGIKGDGCGHCAACNLRANGLNHYLADKPTVMAAMKQKTGLR,not soluble
13,MKRDGHTHTEFCPHGTHDDVEEMVLKAIELDFDEYSIVEHAPLSSEFMKNTAGDKEAVTTASMAMSDLPYYFKKMNHIKKKYASDLLIHIGFEVDYLIGYEDFTRDFLNEYGPQTDDGVLSLHFLEGQGGFRSIDFSAEDYNEGIVQFYGGFEQAQLAYLEGVKQSIEADLGLFKPRRMGHISLCQKFQQFFGEDTSDFSEEVMEKFRVILALVKKRDYELDFNTAGLFKPLCGETYPPKKIVTLASELQIPFVYGSDSHGVQDIGRGYSTYCQKLEHHHHHH,soluble
14,MKRGTITIDGKGNVHIPSTPVWMSACEIADLFGAFSGKVSVQIKTIFKEGLLMETEAMRTIQSGQGFIDLYGIEMITMLSFRIATPQAKTLRRWIIDRLSGKNSSSSPLIVCYTLGKRYN,not soluble
15,MKRQRVVVKIGSSSLTDPKGGLCHDKLFDHVEAIAYLKQLGHDVILITSGAVAAGFGPLGYPARPTTIAGKQAAAAVGQSLLMQAYSSAFAQFGFTAAQLLLTRSDFYSRERFRNLFATITTLLENGAVPIINENDSVSIEELTFGDNDMLSALVAGFLHADALILLTDINGLYDANPKTNPQAKKYAFLPEITDEMIEAAGGIGSAVGTGGMRSKLLAARKALSFGVSVFIGAGSGKEKLADILAGKGDGTYIGAPFPKQMQMRKQWIAYHAPVAGTVTVDSGAEEALLMRGKSLLPAGVTAVSGDFHAMDVVDVVNEKGITIGRGQVYYAAADLEKVKGLPSEEARQYSYLHRPEVIHRDNWVTLRKESVSK,not soluble
16,MKRTGILLVNLGTPKDSSKTEVRKYLKTFLSDRRVIKIHPIIWKPILNGIILNIRPKKSAKLYQKICTENGFPLLEYTEKQMENLKNICPEVEVTIGMSYSEPSIETALDTLLSKEIEELNVIPMYPQYSGTTVGSVFDSVMNYFIKSDRIVDIKFIRSFYNNPQYIDYFSKKINEALNESPIDAIVFSYHGIPMSYVKDGDNYPKECTK,not soluble
17,MKRVGKQTWVFDDGVYIQAAAAAVGPLEADGPLGSYFDVCHRDLYCGEATWELAERRLMREAVDCCLQKAGVSAEEVDLLLAGDLLNQNATSNYVARELPIPFLCLFGACSTSMQTLAAAAAFVAGGLADRALAATSSHNATAERQFRYPTELGVQKPKTATFTVTGAGAALVGRAPGRWRVRAATIGKVVDAGLKNPLDMGAAMAPAAADTIEQHFRDLGVSPGDYDLIVTGDLSRVGSVIVRELLAESGYDVTDVYNDCGLMIYRPDQKVFAGGSGCACSAVVTYGYLLQELARGTFRRLFVVATGALLSQTMVQQKQSIPAIAHGVVIEAAGQEPDLPP,not soluble
18,MKRVVVTGIGMINALGLDKESSFKAICNGESGVNKITLFDATDFPVQIAAEVKNFDPLEVVDGKEVKKIDRFIQLGIKAAREAMQDAGFSEELDKEEFGIVSASGIGGLPNIEKNSIICSERGPRKISPFFIPSALVNMLGGLISIEHGLKGPNISCVTACAAGTHAIGEAYKSIALGNAKKMLVIGAEAAICPVGIGGFASMKALSTRNEDPQHASRPFDKERDGFVMGEGAGALVFEEYEEAKKRGATIYAELIGFGESADAHHITSPTLDGPLRAMKKALNMAGNPKVDYINAHGTSTPVNDKNETAAIKELFGNNIPLISSTKGQTGHCLGAAGAIEAVVSVMVLRDGVVPPTINQLVKDDECDLDYIPNISRKVDLKVVMSNSFGFGGTNGCVVFKKVD,soluble
19,MKRYVFMLSDGTGITAETLGNSLITQFENIQFEKITIPYIDSTHRAESVVLRINQCFSEQGTKPLVFMTLVDPEIRQAIKKAHACVFDLFSIFIGPLENELEEKSSYTVGRTHGVANVKSYSHRIEAIDFALSHDDGIKTRGYDKADIILIGVSRCGKTPSCLYMALQYGILAANYPFTEEDLVGFRLPEVLRPYKQKLFGLTIDAQRLQQIRSERRPNSKYASAEQCRLEVTEVEAMYQRENIPYINSTKYSIEEISTKVLAIAGLQRKILEHHHHHH,not soluble
20,MKSAEQWIDELQLESHPEGGFYRETIREVLKDGRRAPFSSIYFLLTDDNISHFHRIDADEVWYYHAGDSLTIHMINPDGEYTTATLGTDIQNGDVLQYVVPKGTIFASSIEFSNTYSLVGCMCQPAFEFKQFELFKQSELITQYPHLKSVIEKYALK,soluble
21,MKSFDGHNDLLARLWLSEHPDPVGMFLKGQLPGHLDFARCQQAQFAGGLFAIFVPPFDYVKNNHPYKLRKSAQAGFDTQDIHHIVFTQLDYIKQIASRSDRRIQICLSVEDIQFCLQQDIMAVVIHLEGAEVLDSEFGVLEQLHARGLRSIGPLWNLPNQFGHGLQASFPHSPDTGLGLTDQGKALIQLCSEKRIMIDVSHMNEKAFWDTAKISELPLIATHSNVHQLCPQPRNLTDAQLEAIQASQGCVGVNFDTAFLRPDGQRNAATSLDLILEHIEYLMHKLGEDQVAFGSDFDGGFISDHLKDVTGLIHLQQAFERRGYSQALQEKLCHQNWLSALQRVWHPAC,not soluble
